Assay results as given in patent publication US20080025968A1 (YEDA RESEARCH AND DEVELOPMENT, published 2008).

Legend:
[1] = molecular target: T1, p65, endogenous (human, UniProt Q04206 1-551); assay: western blot of the p55 TNF receptor complex from Ramos cells (FIG. 6a)
T1 construct: mature; also called RelA
Method: (§1) Transfections, immunoblotting and immunoprecipitations were performed as described in Example 2 and Example 3 of the Examples section. For immunoprecipitation of the CD70/CD27 ligand-receptor complexes from resting PBMC and Ramos cells, cell lysates were prepared as described for the kinase tests aforementioned and incubated for 4 hours at 4° C. with 25 μl of 50% M2-FLAG agarose beads per ml of lysate. The TNF-receptor complex was precipitated as described (Zhang et al., 2000). The signalosome from cell lysates was immunoprecipitated using a 1:1 mixture of two different antibodies against IKK1 (M-280 and H-744, Santa Cruz). Immunoprecipitation was allowed to continue for 2 hours at 4° C., using 10 μg of anti-IKKα antibodies adsorbed to 25 μl of 50% protein-A-Sepharose beads per ml of lysate.

[2] = molecular target: T2, p50, endogenous (human, UniProt P19838 1-433); assay: as above
T2 construct: also called NF-κB1 processed form
T2 sequence (looked up): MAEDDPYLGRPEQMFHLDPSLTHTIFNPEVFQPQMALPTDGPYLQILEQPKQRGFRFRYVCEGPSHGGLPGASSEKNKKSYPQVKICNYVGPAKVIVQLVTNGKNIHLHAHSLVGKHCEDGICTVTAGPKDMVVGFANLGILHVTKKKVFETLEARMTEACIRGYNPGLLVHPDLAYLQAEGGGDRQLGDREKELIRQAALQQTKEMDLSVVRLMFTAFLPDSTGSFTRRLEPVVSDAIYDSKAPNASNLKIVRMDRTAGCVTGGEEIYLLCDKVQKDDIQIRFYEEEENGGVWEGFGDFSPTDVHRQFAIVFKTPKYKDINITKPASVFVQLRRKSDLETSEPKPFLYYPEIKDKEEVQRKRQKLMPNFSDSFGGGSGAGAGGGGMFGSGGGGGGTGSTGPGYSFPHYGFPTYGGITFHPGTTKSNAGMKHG
Method: as §1

[3] = molecular target: T3, NF-κB2/p100, endogenous (human, UniProt Q00653 1-900); assay: as above
T3 construct: mature
T3 sequence (looked up): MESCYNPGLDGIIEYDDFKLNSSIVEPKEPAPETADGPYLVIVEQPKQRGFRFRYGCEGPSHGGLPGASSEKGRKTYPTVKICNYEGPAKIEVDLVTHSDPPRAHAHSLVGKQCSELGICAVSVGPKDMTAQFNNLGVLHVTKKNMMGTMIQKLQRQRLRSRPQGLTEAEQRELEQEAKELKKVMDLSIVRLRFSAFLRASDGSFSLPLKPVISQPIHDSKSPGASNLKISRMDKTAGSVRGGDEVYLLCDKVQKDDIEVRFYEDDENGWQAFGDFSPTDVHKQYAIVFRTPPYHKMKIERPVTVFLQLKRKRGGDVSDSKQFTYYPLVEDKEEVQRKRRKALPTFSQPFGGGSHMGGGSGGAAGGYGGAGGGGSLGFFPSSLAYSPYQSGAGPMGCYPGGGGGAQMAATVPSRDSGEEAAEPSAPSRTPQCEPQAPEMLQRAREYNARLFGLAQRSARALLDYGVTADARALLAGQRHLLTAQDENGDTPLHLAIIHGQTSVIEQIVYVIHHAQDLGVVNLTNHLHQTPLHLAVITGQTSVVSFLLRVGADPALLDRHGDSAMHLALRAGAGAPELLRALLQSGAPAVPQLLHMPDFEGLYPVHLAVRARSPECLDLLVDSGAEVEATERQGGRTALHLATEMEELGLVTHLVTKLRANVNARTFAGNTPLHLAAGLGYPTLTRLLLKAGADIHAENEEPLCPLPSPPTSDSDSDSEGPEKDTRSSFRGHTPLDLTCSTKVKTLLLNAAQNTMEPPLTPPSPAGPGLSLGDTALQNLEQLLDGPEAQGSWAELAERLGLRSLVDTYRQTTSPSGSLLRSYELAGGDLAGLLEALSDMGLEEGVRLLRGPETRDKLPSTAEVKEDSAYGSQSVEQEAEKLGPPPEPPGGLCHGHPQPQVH
Method: as §1

[4] = molecular target: T4, IKK1, endogenous (human, UniProt O15111 1-745); assay: western blot of the p55 TNF receptor complex from Ramos cells after TNF (FIG. 5c)
T4 construct: mature; also called IKKα
T4 sequence (looked up): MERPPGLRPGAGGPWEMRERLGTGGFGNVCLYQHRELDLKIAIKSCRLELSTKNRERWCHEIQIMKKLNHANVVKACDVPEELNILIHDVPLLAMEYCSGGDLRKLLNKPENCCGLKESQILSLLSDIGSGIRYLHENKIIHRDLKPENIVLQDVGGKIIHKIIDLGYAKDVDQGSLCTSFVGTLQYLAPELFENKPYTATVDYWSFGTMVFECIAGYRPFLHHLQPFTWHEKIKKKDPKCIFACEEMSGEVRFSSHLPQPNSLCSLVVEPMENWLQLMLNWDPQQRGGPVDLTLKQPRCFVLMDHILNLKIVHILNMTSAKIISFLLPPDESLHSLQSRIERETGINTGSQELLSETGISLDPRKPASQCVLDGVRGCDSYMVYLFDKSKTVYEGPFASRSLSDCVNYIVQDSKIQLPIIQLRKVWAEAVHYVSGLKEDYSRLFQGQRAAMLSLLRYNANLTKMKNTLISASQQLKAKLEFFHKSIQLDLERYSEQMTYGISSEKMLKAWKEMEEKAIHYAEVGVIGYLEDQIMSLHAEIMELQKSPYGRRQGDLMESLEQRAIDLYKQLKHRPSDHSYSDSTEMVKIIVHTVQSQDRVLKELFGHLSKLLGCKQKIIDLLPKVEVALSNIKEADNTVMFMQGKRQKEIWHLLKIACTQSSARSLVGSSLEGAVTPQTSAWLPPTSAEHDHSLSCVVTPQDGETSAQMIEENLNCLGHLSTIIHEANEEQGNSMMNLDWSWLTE

Measured: binding result

T1 sequence (Q04206 whole entry): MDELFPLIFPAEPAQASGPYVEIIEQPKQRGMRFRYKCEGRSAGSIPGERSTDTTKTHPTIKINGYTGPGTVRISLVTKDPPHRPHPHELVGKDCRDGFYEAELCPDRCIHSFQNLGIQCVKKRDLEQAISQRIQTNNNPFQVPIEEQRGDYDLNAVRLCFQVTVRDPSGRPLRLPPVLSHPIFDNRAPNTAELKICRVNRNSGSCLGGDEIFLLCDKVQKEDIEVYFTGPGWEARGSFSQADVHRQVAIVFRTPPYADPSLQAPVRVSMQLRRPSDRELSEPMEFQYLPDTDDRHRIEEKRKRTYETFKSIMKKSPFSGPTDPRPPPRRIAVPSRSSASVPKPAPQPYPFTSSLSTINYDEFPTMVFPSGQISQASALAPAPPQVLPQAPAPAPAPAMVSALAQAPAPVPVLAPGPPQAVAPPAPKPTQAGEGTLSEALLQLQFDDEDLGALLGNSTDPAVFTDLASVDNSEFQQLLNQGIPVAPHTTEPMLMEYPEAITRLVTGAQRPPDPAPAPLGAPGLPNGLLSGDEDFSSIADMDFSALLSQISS

B1: p55 TNF receptor, endogenous in Ramos cells (receptor, human, UniProt P19438 30-455, looked up)
chain: LVPHLGDREKRDSVCPQGKYIHPQNNSICCTKCHKGTYLYNDCPGPGQDTDCRECESGSFTASENHLRHCLSCSKCRKEMGQVEISSCTVDRDTVCGCRKNQYRHYWSENLFQCFNCSLCLNGTVHLSCQEKQNTVCTCHAGFFLRENECVSCSNCKKSLECTKLCLPQIENVKGTEDSGTTVLLPLVIFFGLCLLSLLFIGLMYRYQRWKSKLYSIVCGKSTPEKEGELEGTTTKPLAPNPSFSPTPGFTPTLGFSPVPSSTFTSSSTYTPGDCPNFAAPRREVAPPYQGADPILATALASDPIPNPLQKWEDSAHKPQSLDTDDPATLYAVVENVPPLRWKEFVRRLGLSDHEIDRLELQNGRCLREAQYSMLATWRRRTPRREATLELLGRVLRDMDLLGCLEDIEEALCGPAALPPAPSLLR
notes: whole, on cells; TNF-receptor complex precipitated as described by Zhang et al., 2000
binds: all assays above
